Tests used:
[1] = system: CC[n+]1c(-c2ccccc2)c2cc(N)ccc2c2ccc(N)cc21; assay: facilitated ethidium influx in ATP-depleted cells, fluorimetry, hyperbolic fit; type: cell-based, Lactococcus lactis; details: 50 mM KPi pH 7.0, 5 mM MgSO4, no proton-motive force, 0.25-10 µM ethidium bromide, non-expressing control subtracted
[2] = system: CC[n+]1c(-c2ccccc2)c2cc(N)ccc2c2ccc(N)cc21; assay: cells, lysate or membranes; details: 50 mM KPi pH 7.0, 5 mM MgSO4, no proton-motive force, 0.25-10 µM ethidium bromide, non-expressing control subtracted

LmrP (Lactococcus lactis; K357A)
Km [1]: 1.42 ± 0.29 µM

LmrP (Lactococcus lactis; R260A)
Km [1]: 1.49 ± 0.68 µM

LmrP (Lactococcus lactis)
Km [2]: 0.92 ± 0.30 µM
